Results on seven molecules are retold here after patent US9708413B2, “Glycosylated linker, compound containing glycosylated linker moiety and physiologically active substance moiety or salt thereof, and methods for producing said compound or salt thereof” (Glytech, Inc., priority 2012, dated 2017).

Molecules are shown by their SMILES. Where “and” joins values, the source holds several entries; their conditions need not be identical. Equal entries are not always repeated. Where two headings read alike, the source gives them in different places.

Usually half-life stands for the time needed for the level to fall by half in the phase considered. Read a low half-life as fast loss. By thermodynamic solubility is commonly meant the concentration in solution at equilibrium with solid. The term solubility denotes the concentration that dissolves in the medium under given conditions. Read a low solubility as little dissolved substance. Broadly, the Solubility is the dissolved amount per volume that the medium holds.

A short description of series [1]: Autocatalytic cleavage of the glycosylated linker moiety in aqueous solution, traced by HPLC (elimination half-life). On the procedure:
To each sampled solution, a 0.5% aqueous TFA solution (28 μL) was added, and this solution was then frozen. The obtained solution was dissolved immediately before HPLC analysis, and a 50 μL aliquot thereof was injected and analyzed by HPLC [column: SHISEIDO CAPCELL PAK C18 UG-120 (5 μm), φ4.6×250 mm, flow rate: 0.7 mL/min, eluent A: 0.1% TFA in water, eluent B: 0.09% TFA/10% water/90% acetonitrile, gradient A:B=77:23→50:50 (20 min) linear concentration gradient elution]. The compound was detected using a diode array detector with a detection wavelength set to 220 nm.

Another series is described as follows: physchem. Here is the method:
To each microtube, 30 μL of a 0.1% aqueous TFA solution was added. These microtubes were shaken at 25° C. for 15 minutes and then centrifuged at 16100×g at 25° C. for 10 minutes. Subsequently, the absorbance of the supernatant at 280 nm was measured in each of these microtubes.
Then, three of these tubes were used in amino acid composition analysis to determine sample contents. […] This absorbance at 280 nm was divided by the concentration determined in the amino acid composition analysis to determine the molar absorption coefficient.
The molar absorption coefficient εM of the HER28-16 peptide (SEQ ID NO: 15) at 280 nm was calculated according to the following expression (C. N. Pace et al., Prot. Sci., 1995, 4, pp. 2411-2423): εM=Trp×5500+Tyr×1490+Cystine×125[A280/mol/cm]
wherein Trp represents the number of tryptophan residues, Tyr represents the number of tyrosine residues, and Cystine represents the number of disulfide bonds.

Where [2] appears, read: PBS solution, pH 7.4, Elimination half-life, PBS (pH 7.4), 37° C.
The mark [3] stands for this setting: acetate buffer solution, pH 4, Elimination half-life, Acetate buffer solution (pH 4.0), 37° C.
The mark [4] stands for this setting: PBS solution, pH 7.4, Elimination half-life, PBS (pH 7.4), 25° C.
Where [5] appears, read: acetate buffer solution, pH 4, Elimination half-life, Acetate buffer solution (pH 4.0), 25° C.

For `CC(=O)N[C@@H]1[C@@H](O)[C@H](O[C@@H]2O[C@H](CO)[C@@H](O[C@@H]3O[C@H](CO[C@H]4O[C@H](CO)[C@@H](O)[C@H](O)[C@@H]4O[C@@H]4O[C@H](CO)[C@@H](O[C@@H]5O[C@H](CO)[C@H](O)[C@H](O)[C@H]5O)[C@H](O)[C@H]4NC(C)=O)[C@@H](O)[C@H](O[C@H]4O[C@H](CO)[C@@H](O)[C@H](O)[C@@H]4O[C@@H]4O[C@H](CO)[C@@H](O[C@@H]5O[C@H](CO)[C@H](O)[C@H](O)[C@H]5O)[C@H](O)[C@H]4NC(C)=O)[C@@H]3O)[C@H](O)[C@H]2NC(C)=O)[C@@H](CO)O[C@H]1NC(=O)CC(NC(=O)OCC1c2ccccc2-c2ccccc21)C(=O)N1CCN(CCNC(=O)c2ccccc2C(=O)N[C@@H](Cc2ccc(O)cc2)C(=O)N[C@@H](Cc2ccccc2)C(=O)N2CCC[C@H]2C(=O)NCC(=O)N[C@@H](CCC(N)=O)C(=O)N[C@@H](Cc2ccccc2)C(=O)N[C@@H](C)C(=O)N[C@@H](Cc2ccccc2)C(=O)N[C@@H](CO)C(=O)O)CC1` (stereo partly shown) [compound 7, glycosylated (Fmoc-Asn (asialo)-type) linker-chemerin 9 conjugate], the figures for the half-life in series [1] (setting [2]) and in series [1] (setting [3]) were 2.6 h and 12.2 h, respectively.

`CC(C)C[C@H](NC(=O)[C@H](CC(C)C)NC(=O)[C@H](C)NC(=O)[C@H](CC(C)C)NC(=O)[C@H](CC(C)C)NC(=O)[C@H](CC(C)C)NC(=O)CNC(=O)[C@H](Cc1c[nH]c2ccccc12)NC(=O)[C@@H](N)CCCNC(=N)N)C(=O)O` [HER28-16, reference compound]: the solubility (thermodynamic) at 15 min in the series “physchem” was 210 µg/mL and 200 µM.

Regarding `CC(=O)N[C@@H]1[C@@H](O)[C@H](O[C@@H]2O[C@H](CO)[C@@H](O[C@@H]3O[C@H](CO[C@H]4O[C@H](CO)[C@@H](O)[C@H](O)[C@@H]4O[C@@H]4O[C@H](CO)[C@@H](O[C@@H]5O[C@H](CO)[C@H](O)[C@H](O)[C@H]5O)[C@H](O)[C@H]4NC(C)=O)[C@@H](O)[C@H](O[C@H]4O[C@H](CO)[C@@H](O)[C@H](O)[C@@H]4O[C@@H]4O[C@H](CO)[C@@H](O[C@@H]5O[C@H](CO)[C@H](O)[C@H](O)[C@H]5O)[C@H](O)[C@H]4NC(C)=O)[C@@H]3O)[C@H](O)[C@H]2NC(C)=O)[C@@H](CO)O[C@H]1NC(=O)CC(N)C(=O)N1CCN(CCNC(=O)c2ccccc2C(=O)N[C@@H](Cc2ccc(O)cc2)C(=O)N[C@@H](Cc2ccccc2)C(=O)N2CCC[C@H]2C(=O)NCC(=O)N[C@@H](CCC(N)=O)C(=O)N[C@@H](Cc2ccccc2)C(=O)N[C@@H](C)C(=O)N[C@@H](Cc2ccccc2)C(=O)N[C@@H](CO)C(=O)O)CC1` (stereo partly shown) [compound 1, glycosylated (Asn (asialo)-type) linker-chemerin 9 conjugate], the half-life was 43.1 h in series [1] (PBS solution, pH 7.4, Elimination half-life, PBS (pH 7.4), 4° C.); 4.3 h in series [1] (setting [4]); 1.2 h in series [1] (setting [2]); 250 h in series [1] (acetate buffer solution, pH 4, Elimination half-life, Acetate buffer solution (pH 4.0), 4° C.); 16 h in series [1] (setting [5]); 4.4 h in series [1] (setting [3]). This molecule also returned a half-life in series [1] (water, Elimination half-life (Reference), in water, 4° C.) of 221 h.

Take `CC(=O)N[C@@H]1[C@@H](O)[C@H](O[C@@H]2O[C@H](CO)[C@@H](O[C@@H]3O[C@H](CO[C@H]4O[C@H](CO)[C@@H](O)[C@H](O)[C@@H]4O[C@@H]4O[C@H](CO)[C@@H](O[C@@H]5O[C@H](CO)[C@H](O)[C@H](O)[C@H]5O)[C@H](O)[C@H]4NC(C)=O)[C@@H](O)[C@H](O[C@H]4O[C@H](CO)[C@@H](O)[C@H](O)[C@@H]4O[C@@H]4O[C@H](CO)[C@@H](O[C@@H]5O[C@H](CO)[C@H](O)[C@H](O)[C@H]5O)[C@H](O)[C@H]4NC(C)=O)[C@@H]3O)[C@H](O)[C@H]2NC(C)=O)[C@@H](CO)O[C@H]1NC(=O)CSCC(N)C(=O)N1CCN(CCNC(=O)c2ccccc2C(=O)N[C@@H](Cc2ccc(O)cc2)C(=O)N[C@@H](Cc2ccccc2)C(=O)N2CCC[C@H]2C(=O)NCC(=O)N[C@@H](CCC(N)=O)C(=O)N[C@@H](Cc2ccccc2)C(=O)N[C@@H](C)C(=O)N[C@@H](Cc2ccccc2)C(=O)N[C@@H](CO)C(=O)O)CC1` (stereo partly shown) [compound 5, glycosylated (Cys (asialo)-type) linker-chemerin 9 conjugate]: the half-life in series [1] (setting [2]) is 1.3 h; in series [1] (setting [3]), 4.5 h.

On to `CC(=O)N[C@@H]1[C@@H](O)[C@H](O)[C@@H](CO)O[C@H]1NC(=O)CSC[C@H](N)C(=O)N1CCN(CCNC(=O)c2ccccc2C(=O)N[C@@H](Cc2ccc(O)cc2)C(=O)N[C@@H](Cc2ccccc2)C(=O)N2CCC[C@H]2C(=O)NCC(=O)N[C@@H](CCC(N)=O)C(=O)N[C@@H](Cc2ccccc2)C(=O)N[C@@H](C)C(=O)N[C@@H](Cc2ccccc2)C(=O)N[C@@H](CO)C(=O)O)CC1` [compound 4, glycosylated (Cys (GlcNAc)-type) linker-chemerin 9 conjugate], for which the half-life in series [1] (setting [2]) was 1.4 h; in series [1] (setting [3]), 4.3 h.

In the case of `CC(=O)N[C@@H]1[C@@H](O)[C@H](O[C@@H]2O[C@H](CO)[C@@H](O[C@@H]3O[C@H](CO[C@H]4O[C@H](CO)[C@@H](O)[C@H](O)[C@@H]4O[C@@H]4O[C@H](CO)[C@@H](O[C@@H]5O[C@H](CO)[C@H](O)[C@H](O)[C@H]5O)[C@H](O)[C@H]4NC(C)=O)[C@@H](O)[C@H](O[C@H]4O[C@H](CO)[C@@H](O)[C@H](O)[C@@H]4O[C@@H]4O[C@H](CO)[C@@H](O[C@@H]5O[C@H](CO)[C@H](O)[C@H](O)[C@H]5O)[C@H](O)[C@H]4NC(C)=O)[C@@H]3O)[C@H](O)[C@H]2NC(C)=O)[C@@H](CO)O[C@H]1NC(=O)CC(N)C(=O)N1CCN(CCNC(=O)c2ccccc2C(=O)N[C@@H](CCCNC(=N)N)C(=O)N[C@@H](Cc2c[nH]c3ccccc23)C(=O)NCC(=O)N[C@@H](CC(C)C)C(=O)N[C@@H](CC(C)C)C(=O)N[C@@H](CC(C)C)C(=O)N[C@@H](C)C(=O)N[C@@H](CC(C)C)C(=O)N[C@@H](CC(C)C)C(=O)O)CC1` (stereo partly shown) [compound 11, glycosylated (Asn (asialo)-type) linker-HER28-16 conjugate], the half-life in series [1] (setting [4]) was 8.3 h; in series [1] (setting [2]), 2.6 h; in series [1] (setting [5]), 21.4 h; in series [1] (setting [3]) it was 6.2 h. Besides, the solubility at 15 minutes was over 38 mM in “physchem” and at least 38 mM in the series “physchem” (Solubility (molar concentration), 0.1% aqueous TFA solution, 25° C.). In “physchem” (0.1% aqueous TFA solution, 25° C., listed as Glycosylated linker-HER28-16 conjugate (compound 11)), the Solubility is over 116 mg/mL.

As to `CC(=O)N[C@@H]1[C@@H](O)[C@H](O[C@@H]2O[C@H](CO)[C@@H](O[C@@H]3O[C@H](CO[C@H]4O[C@H](CO)[C@@H](O)[C@H](O)[C@@H]4O[C@@H]4O[C@H](CO)[C@@H](O[C@@H]5O[C@H](CO)[C@H](O)[C@H](O)[C@H]5O)[C@H](O)[C@H]4NC(C)=O)[C@@H](O)[C@H](O[C@H]4O[C@H](CO)[C@@H](O)[C@H](O)[C@@H]4O[C@@H]4O[C@H](CO)[C@@H](O[C@@H]5O[C@H](CO)[C@H](O)[C@H](O)[C@H]5O)[C@H](O)[C@H]4NC(C)=O)[C@@H]3O)[C@H](O)[C@H]2NC(C)=O)[C@@H](CO)O[C@H]1NC(=O)CC(N)C(=O)N1CCN(CCNC(=O)c2c(Cl)c(Cl)c(Cl)c(Cl)c2C(=O)N[C@@H](Cc2ccc(O)cc2)C(=O)N[C@@H](Cc2ccccc2)C(=O)N2CCC[C@H]2C(=O)NCC(=O)N[C@@H](CCC(N)=O)C(=O)N[C@@H](Cc2ccccc2)C(=O)N[C@@H](C)C(=O)N[C@@H](Cc2ccccc2)C(=O)N[C@@H](CO)C(=O)O)CC1` (stereo partly shown) [compound 10, glycosylated (Asn (asialo)-tetrachlorophthaloyl-type) linker-chemerin 9 conjugate], the half-life was 1.1 h in series [1] (setting [4]), 0.255 h in series [1] (setting [2]), 4.5 h in series [1] (setting [5]) and 1.3 h in series [1] (setting [3]).
